Measurements: article PMC6753076

Molecular target: PELI1 (UniProt Q96FA3)
Assay: anti-Flag co-immunoprecipitation, immunoblot
Conditions: reference: wild type; sites T382

HPD (from UniProt P32754) T382A
binding against the reference: lost
